Earlier results, collected in PMC2900478.

Molecular target: GABARAP (Homo sapiens) (UniProt O95166)
Chain of UniProt O95166 (O95166 1-116): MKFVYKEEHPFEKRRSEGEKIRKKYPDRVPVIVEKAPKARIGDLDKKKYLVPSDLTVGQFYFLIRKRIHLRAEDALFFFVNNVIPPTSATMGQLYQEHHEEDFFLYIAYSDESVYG

- Kd: 100 µM
Substance: Nix (from UniProt O60238)
